Measurements from paper PMC11834087, “Use of polyadenosine tail mimetics to enhance mRNA expression from genes associated with haploinsufficiency disorders”.

Assays:
[1] = molecular target: T1, PABPC (PABPC1 RRM1-4) (Homo sapiens, UniProt P11940 1-370); assay: EMSA; RNA 5 nM; 1x binding buffer: 100 mM NaCl, 5 mM MgCl2, 0.5 mM EDTA, 0.01% NP-40, 0.1 mg/mL BSA (from 10x stock), 5% glycerol from RNA mix plus glycerol/PBS from protein stock; pH not stated; 15 min at room temperature; 6% native gel with 0.01% Triton X-100 at 4 C; settings: protein: commercial; tags: N-terminal 6xHis-SUMO; label: 3' Cy5
[2] = molecular target: T1, PABPC (PABPC1 RRM1-4); assay: EMSA; RNA 10 nM; 1x binding buffer: 100 mM NaCl, 5 mM MgCl2, 0.5 mM EDTA, 0.01% NP-40, 0.1 mg/mL BSA (from 10x stock), 5% glycerol from RNA mix plus glycerol/PBS from protein stock; pH not stated; 15 min at room temperature; 6% native gel with 0.01% Triton X-100 at 4 C; settings: protein: commercial; tags: N-terminal 6xHis-SUMO; label: 3' Cy5

T1 sequence (P11940 1-370): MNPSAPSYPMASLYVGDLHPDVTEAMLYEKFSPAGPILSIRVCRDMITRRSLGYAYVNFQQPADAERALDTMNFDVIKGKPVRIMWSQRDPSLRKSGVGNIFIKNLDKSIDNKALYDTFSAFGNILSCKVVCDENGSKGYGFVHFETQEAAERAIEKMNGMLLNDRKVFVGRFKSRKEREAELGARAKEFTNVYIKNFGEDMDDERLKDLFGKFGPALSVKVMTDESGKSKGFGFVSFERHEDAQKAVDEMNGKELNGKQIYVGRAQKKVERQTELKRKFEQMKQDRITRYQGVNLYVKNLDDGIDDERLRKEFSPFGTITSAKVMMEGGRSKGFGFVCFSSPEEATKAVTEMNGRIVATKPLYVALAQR

Binder | Kd [1] [nM] | Kd [2] [nM]
AAAAAAAAAAAAAAA (XNA, 2'-O-methyl and phosphorothioate on all 15 nucleotides) [fully modified poly(A)15] | 85 | –
AAAAAAAAAAAAAAA (ssRNA) [unmodified poly(A)15] | – | 110
AAAAAAAAAAAAAAA (XNA, 2'-O-methyl and phosphorothioate on the first three nucleotides (mA*mA*mA*A12)) [3NT Mod poly(A)15] | 54 | –
